How the values were obtained:
[1] = molecular target: T1, human Tyro3 extracellular domain (human, UniProt Q06418 41-429); assay: competition ELISA: soluble hTyro3-Fc (varied) equilibrated with z10, free z10 caught on plate-coated hMER
T1 construct: extracellular domain; also called hTyro3
T1 sequence (looked up): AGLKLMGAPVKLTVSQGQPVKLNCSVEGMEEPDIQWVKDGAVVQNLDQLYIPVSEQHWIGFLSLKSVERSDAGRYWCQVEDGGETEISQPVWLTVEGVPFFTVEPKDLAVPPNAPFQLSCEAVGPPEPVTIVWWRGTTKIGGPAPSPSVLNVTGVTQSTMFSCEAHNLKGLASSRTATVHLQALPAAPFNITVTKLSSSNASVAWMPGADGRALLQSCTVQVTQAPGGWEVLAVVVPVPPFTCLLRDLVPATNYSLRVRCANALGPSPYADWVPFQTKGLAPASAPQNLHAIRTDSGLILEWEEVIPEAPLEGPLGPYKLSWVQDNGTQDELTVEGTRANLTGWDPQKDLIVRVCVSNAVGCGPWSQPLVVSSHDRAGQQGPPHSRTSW
Description: (§1) Plates were washed three times with PBS 0.1% Tween and blocked with 3% non-fat dry skim milk in PBS for 2 h.
(§2) During the saturation step, dilutions of the antigen hAxl (RnD Systems, 154-AL-100), hTyro3 (RnD Systems, 859-DK-100) or mMER (RnD Systems, 591-MR-100)] were prepared at 50 nM as the highest concentration, and serially diluted 1:1 to 0.098 nM in PBS. […] Then, the saturated plate was washed three times with PBS 0.1% Tween and the antigen-antibody mixture was added to the wells in duplicate and incubated for 1 h at room temperature. The plate was then washed three times with PBS 0.1% Tween and incubated with anti-human Alkaline Phosphatase antibody (Sigma, SAB 3701248) at a dilution of 1:3000 in PBS for 1 h at room temperature. After washing three times with PBS 0.1% Tween, 100 uL of Alkaline Phosphatase Yellow (pNPP) liquid substrate system (Sigma, P7998) was added in each well and incubated for 70 min at room temperature. Plates were read at 405 nm and at 570 nm, to correct plate inconsistencies, using Glomax Discover System from Promega The absorbance was plotted as a function of antigen concentration and the Kd was calculated using GraphPad Prism 7.0c.

[2] = molecular target: T2, human Axl extracellular domain conjugated to an IgG Fc domain (human, UniProt P30530 26-451); assay: competition ELISA: soluble hAxl-Fc (varied) equilibrated with z10, free z10 caught on plate-coated hMER
T2 construct: extracellular domain; also called hAxl; human Ax1; not shown: IgG Fc domain
T2 sequence (looked up): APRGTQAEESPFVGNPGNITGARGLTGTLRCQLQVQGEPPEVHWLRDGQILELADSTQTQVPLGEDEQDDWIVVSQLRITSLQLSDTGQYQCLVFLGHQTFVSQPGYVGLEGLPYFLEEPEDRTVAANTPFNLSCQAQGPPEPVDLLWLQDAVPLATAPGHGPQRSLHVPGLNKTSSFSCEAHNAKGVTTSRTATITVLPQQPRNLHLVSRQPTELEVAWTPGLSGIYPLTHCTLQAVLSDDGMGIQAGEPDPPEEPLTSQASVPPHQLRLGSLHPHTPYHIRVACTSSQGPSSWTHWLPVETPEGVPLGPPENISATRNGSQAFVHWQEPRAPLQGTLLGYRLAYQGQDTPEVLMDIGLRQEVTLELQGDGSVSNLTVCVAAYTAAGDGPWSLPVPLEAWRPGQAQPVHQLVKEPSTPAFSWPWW
Description: as §1, §2

[3] = molecular target: T3, extracellular MERTK domain (W3725-hPro1, Sino Biological, 10298-HCCH) (human, UniProt Q12866 21-505); assay: SPR, affinity format: z10 captured by anti-human Fc on CM5 chip, extracellular MERTK domain as analyte, 1:1 fit; Affinity, SPR
T3 construct: extracellular domain; also called human extracellular MERTK
T3 sequence (looked up): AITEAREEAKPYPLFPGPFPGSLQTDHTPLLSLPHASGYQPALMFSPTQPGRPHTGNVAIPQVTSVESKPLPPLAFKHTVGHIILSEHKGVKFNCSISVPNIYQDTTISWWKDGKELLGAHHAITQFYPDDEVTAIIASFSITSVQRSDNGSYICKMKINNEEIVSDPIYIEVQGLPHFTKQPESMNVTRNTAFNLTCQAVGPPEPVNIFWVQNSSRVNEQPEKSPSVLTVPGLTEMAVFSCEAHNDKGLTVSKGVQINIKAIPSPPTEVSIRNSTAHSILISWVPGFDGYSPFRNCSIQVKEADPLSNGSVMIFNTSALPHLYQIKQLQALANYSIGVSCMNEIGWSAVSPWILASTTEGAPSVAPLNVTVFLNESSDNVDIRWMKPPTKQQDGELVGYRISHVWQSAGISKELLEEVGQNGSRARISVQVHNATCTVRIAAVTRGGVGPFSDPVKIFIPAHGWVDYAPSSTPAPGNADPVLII
Description: A CM5 sensor chip was activated for 420 s with a mixture of 400 mM EDC and 100 mM NHS. […] The chip was deactivated by 1 M ethanolamine-HCl. […] 10 mM glycine pH 1.5 as regeneration buffer was injected following every dissociation phase. The chip was regenerated with 10 mM glycine pH 1.5. One surface channel (without captured ligand) was used as control surface for reference subtraction. Final data of each interaction was deducted from reference channel and buffer channel data. […] A molecular weight of 54 kDa was used to calculate the molar concentration of the analyte.

[4] = molecular target: T4, rhMer/Fc Chimera (recombinant human MERTK extracellular domain conjugated to an IgG Fc domain) (human, UniProt Q12866 21-505); assay: SPR, avidity format: rhMer/Fc Chimera immobilised on CM5 chip, antibody as analyte, 1:1 fit
T4 construct: extracellular domain; also called hMER recombinant protein; Mer-Fc conjugate; not shown: IgG Fc domain
T4 sequence (looked up): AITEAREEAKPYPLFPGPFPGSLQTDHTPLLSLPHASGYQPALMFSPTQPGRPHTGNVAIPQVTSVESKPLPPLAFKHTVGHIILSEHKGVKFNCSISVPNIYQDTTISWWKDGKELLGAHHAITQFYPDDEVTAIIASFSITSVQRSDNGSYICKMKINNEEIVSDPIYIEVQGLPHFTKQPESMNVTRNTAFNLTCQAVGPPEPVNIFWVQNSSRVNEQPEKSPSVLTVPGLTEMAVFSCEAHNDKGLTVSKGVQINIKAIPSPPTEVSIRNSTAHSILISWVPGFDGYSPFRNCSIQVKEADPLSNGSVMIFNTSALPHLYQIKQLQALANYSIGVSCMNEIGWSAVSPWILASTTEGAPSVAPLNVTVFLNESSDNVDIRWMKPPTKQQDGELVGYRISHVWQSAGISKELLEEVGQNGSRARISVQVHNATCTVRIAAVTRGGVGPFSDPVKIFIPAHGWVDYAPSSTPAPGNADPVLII
Description: With respect to avidity and affinity measurements using SPR, the protocols below were used.
The activator was prepared with a mixture of 400 mM EDC and 100 mM NHS immediately prior to injection. The CM5 sensor chip was activated for 420 s with the mixture. […] The chip was deactivated by 1 M ethanolamine-HCl. […] 8 concentrations (0.3125, 0.625, 1.25, 2.5, 5, 10, 20 and 40 nM) of the antibodies and running buffer were injected at a flow rate of 30 μL/min for an association phase of 240 s, followed by 4800 s dissociation. 10 mM glycine pH 1.5 as regeneration buffer was injected following every dissociation phase. The chip was regenerated with 10 mM glycine pH 1.5. One surface channel without capturing ligand was used as control surface for reference subtraction. Final data of each interaction was deducted from reference channel and buffer channel data. […] A molecular weight of 150 kDa was used to calculate the molar concentration of the antibodies.

B1: z10 antibody (antibody, human IgG1, kappa, V domains shown)
VH: QVQLVQSGAEVKKPGASVKVSCKASGYTFTNYGMNWVRQAPGQGLEWMGWINTYTGEPTYADDFKGRVTFTTDTSTSTAYMELRSLRSDDMAVYYCARKSTVVSRYFDVWGQGTTVTVSS
VL: DIQMTQSPSFLSASVGDRVTITCKASQDVGDAVTWYQQKPGKAPKLLIYWASTRHTGVPDRFSGSGSGTDFTLTISSLQPEDFATYYCQQYRSYPLTFGQGTKLEIKR
notes: also called MERTK (z10) antibody
binding result [1]: no binding (tested: 50 nM)
binding result [2]: no binding (tested: 50 nM)
Kd [3]: 3 nM
Kd [4]: 0.00574 nM

— patent US20200291135A1 (INSPIRNA, published 2020)
